Test results as given in US20150098945A1 (Daiichi Sankyo, published 2015).
Read-outs that look alike come from different tables or passages of the source.

T1: N-terminal FLAG-tagged cynomolgus monkey ROBO4, cynoROBO4-2 (pCI-FLAG-cynoROBO4-2) (cynomolgus monkey, UniProt Q8WZ75 28-1007 (human entry))
T1 chain: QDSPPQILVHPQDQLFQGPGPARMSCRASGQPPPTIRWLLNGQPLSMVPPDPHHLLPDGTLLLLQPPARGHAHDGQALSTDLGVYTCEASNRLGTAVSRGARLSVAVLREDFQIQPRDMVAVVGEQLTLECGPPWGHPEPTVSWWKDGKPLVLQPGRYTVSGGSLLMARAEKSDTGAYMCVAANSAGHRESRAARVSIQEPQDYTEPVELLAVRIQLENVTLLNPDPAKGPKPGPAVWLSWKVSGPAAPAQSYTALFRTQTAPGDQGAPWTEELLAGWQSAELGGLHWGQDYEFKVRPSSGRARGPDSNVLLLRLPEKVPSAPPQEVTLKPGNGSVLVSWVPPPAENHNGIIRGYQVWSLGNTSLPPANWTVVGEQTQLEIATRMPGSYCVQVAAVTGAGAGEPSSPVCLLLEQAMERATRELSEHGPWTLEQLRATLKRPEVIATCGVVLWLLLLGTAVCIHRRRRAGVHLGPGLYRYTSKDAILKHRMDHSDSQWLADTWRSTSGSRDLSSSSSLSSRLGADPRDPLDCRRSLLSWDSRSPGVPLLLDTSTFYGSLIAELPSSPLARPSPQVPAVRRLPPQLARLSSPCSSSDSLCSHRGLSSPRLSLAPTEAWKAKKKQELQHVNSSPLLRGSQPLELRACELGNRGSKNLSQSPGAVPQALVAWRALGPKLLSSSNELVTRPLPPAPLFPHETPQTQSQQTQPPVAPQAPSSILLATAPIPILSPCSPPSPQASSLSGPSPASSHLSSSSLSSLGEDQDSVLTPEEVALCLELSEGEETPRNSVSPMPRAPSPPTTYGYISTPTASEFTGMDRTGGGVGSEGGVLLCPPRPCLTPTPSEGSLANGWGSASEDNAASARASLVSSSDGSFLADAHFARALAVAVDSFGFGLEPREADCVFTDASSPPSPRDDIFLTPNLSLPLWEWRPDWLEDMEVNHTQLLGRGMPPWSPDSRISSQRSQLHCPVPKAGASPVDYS

T2: rat ROBO4 (pCI-raROBO4-transfected HEK293 cells) (rat, UniProt Q80W87 38-949 at identity 0.93))
T2 chain: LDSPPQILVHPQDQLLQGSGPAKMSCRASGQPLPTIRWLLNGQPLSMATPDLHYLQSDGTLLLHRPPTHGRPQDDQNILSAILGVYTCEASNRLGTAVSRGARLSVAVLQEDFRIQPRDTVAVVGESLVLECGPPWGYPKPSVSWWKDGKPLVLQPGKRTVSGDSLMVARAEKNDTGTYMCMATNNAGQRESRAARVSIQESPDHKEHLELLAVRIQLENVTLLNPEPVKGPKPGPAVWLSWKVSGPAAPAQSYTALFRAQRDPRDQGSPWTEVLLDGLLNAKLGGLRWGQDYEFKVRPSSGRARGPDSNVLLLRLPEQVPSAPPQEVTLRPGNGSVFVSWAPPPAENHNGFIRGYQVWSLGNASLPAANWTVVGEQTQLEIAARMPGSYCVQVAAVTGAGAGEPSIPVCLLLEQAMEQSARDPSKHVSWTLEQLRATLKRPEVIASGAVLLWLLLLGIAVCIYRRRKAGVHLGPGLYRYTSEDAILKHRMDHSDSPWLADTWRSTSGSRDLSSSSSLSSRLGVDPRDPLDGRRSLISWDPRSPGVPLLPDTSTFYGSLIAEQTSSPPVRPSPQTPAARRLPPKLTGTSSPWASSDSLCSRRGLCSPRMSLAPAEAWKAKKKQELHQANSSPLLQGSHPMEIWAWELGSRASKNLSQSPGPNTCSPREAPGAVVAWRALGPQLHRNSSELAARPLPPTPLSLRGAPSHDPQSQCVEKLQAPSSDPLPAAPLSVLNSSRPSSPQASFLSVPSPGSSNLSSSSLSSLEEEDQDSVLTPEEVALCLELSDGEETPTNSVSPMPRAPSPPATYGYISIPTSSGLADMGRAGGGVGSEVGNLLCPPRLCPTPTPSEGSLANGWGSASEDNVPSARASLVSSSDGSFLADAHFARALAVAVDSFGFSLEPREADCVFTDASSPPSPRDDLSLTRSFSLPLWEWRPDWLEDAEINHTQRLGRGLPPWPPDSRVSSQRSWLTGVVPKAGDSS


How the values were obtained:
[1] = target: T1, N-terminal FLAG-tagged cynomolgus …; assay: flow cytometry (FC500), HEK293 cells transfected with pCI-FLAG-cynoROBO4-2, antibody at 10 µg/mL, FITC goat anti-human IgG Fc; control histogram IgG (human IgG)
[2] = target: T2, rat ROBO4 (pCI-raROBO4-transfected …); assay: flow cytometry (FC500), HEK293 cells transfected with pCI-raROBO4, FITC goat anti-human IgG Fc; control histogram IgG (human IgG)
[3] = target: T2, rat ROBO4 (pCI-raROBO4-transfected …); assay: as above

| binding result [1] | binding result [2] | binding result [3] | Binder |
| --- | --- | --- | --- |
| binds | no binding (tested: 10 µg/mL) | – | humanized MAb1 antibody H-1143 (antibody, human IgG2, kappa, V domains shown, Human IgG2 / kappa constant regions; also called hMAb1-H2-type heavy chain + hMAb1-L2-type light chain) VH: EVQLVESGGGLVQPGGSLRLSCAASGFTFSTYAMSWVRQAPGKGLEWVATISQGGTYTYYPDSVKGRFTISRDNAKNTLYLQMNSLRAEDTAVYYCARLIYYDYLDYWGQGTLVTVSS VL: DIVMTQSPLSLPVTLGEPASISCRSSQSLENENKNLYLNWYLQKPGQSPQLLIYRVSNRFSGVPDRFSGSGSGTDFTLKISRVEAEDVGVYYCLQVTHVPWTFGPGTKVDIKR |
| – | – | no binding (tested: 10 µg/mL) | humanized MAb1 antibody H-2140 (antibody, human IgG2, kappa, V domains shown, Human IgG2 / kappa constant regions; also called hMAb1-H4-type heavy chain + hMAb1-L1-type light chain) VH: EVQLVESGGGLVQPGGSLRLSCAASGFTFSTYAMSWVRQAPGKRLEWVATISQGGTYTYYPDSVKGRFTISRDNAKNTLYLQMNSLRAEDTAVYYCARLIYYDYLDYWGQGTLVTVSS VL: DIVMTQSPLSLPVTLGEPASISCRSSQSLENSNGNTYLNWYLQKPGQSPQLLIYRVSNRFSGVPDRFSGSGSGTDFTLKISRVEAEDVGVYYCLQVTHVPWTFGPGTKVDIKR |
